Key:
hKLB = biological target: T1, hKLB; experiment: FACS on 293 cells expressing hKLB, antibody at 0.8 ug/ml
T1 construct: also called human beta-Klotho on 293 cells

FGFR3-IIIc = biological target: T2, FGFR3-IIIc (human, UniProt P22607 23-375, limits assumed); experiment: surface plasmon resonance (Biacore)
T2 construct: also called human FGFR3-IIIc
T2 sequence: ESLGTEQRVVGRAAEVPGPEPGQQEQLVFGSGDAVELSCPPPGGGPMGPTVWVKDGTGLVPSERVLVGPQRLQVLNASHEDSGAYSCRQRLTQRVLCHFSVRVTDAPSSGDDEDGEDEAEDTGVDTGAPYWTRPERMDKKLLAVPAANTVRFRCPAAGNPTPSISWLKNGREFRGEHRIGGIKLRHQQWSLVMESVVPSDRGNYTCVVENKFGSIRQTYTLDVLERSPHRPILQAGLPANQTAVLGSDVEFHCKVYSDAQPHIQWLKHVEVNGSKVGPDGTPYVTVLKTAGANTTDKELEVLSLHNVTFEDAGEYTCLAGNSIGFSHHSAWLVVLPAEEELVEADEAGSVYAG

T1 sequence (chain, as listed by the source limits assumed): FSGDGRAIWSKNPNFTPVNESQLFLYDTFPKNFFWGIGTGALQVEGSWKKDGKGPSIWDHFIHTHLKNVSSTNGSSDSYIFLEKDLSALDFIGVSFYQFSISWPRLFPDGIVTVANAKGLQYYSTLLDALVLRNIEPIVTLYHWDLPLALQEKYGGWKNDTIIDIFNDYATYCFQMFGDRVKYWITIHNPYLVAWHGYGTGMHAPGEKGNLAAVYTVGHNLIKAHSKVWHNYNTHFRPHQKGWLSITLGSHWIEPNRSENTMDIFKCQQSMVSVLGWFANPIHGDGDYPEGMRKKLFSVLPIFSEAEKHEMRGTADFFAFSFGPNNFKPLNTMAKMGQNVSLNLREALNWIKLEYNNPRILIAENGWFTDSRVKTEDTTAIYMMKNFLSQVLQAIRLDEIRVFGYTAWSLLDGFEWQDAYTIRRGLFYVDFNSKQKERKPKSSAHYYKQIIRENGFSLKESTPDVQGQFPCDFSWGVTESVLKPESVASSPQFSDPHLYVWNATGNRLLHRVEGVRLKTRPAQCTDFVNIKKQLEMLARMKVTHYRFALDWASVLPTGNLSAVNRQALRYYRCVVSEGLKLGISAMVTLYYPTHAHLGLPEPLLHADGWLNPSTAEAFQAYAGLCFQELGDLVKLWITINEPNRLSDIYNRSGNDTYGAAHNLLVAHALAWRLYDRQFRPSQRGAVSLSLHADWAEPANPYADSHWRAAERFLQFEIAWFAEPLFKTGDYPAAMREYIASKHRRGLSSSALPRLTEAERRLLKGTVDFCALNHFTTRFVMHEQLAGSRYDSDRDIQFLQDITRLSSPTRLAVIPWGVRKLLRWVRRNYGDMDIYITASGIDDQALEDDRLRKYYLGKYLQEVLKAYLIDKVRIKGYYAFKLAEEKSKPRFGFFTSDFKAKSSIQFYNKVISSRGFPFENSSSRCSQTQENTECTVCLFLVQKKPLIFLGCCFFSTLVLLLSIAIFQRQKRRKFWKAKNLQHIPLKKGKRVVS

Binder	binding result (hKLB)	Kd (FGFR3-IIIc)
8H7 (antibody, V domains shown) VH: QVQLQQPGAEIVKPGASVRLSCKASGYSFTSYWIHWVKQRPGQGLEWIGEIDPSVSNSNYNQKFKGKATLTADKSSSTAYMQLSGLTSEDSAVYFCVRLGVMVYGSSPFWFAYWGQGTLVTVSA VL: DIVMTQSQKFMSTSVGDRVSITCKASQFVSDAVAWYQQKPGQSPKLLICSASYRYTGVPDRFTGSGSGTDFTFTISSVRTEDLAVYYCQQHYIVPYTFGGGTTLEIE	binds	–
5F8 (antibody, V domains shown) VH: EVQLQQSGTELVRPGASVKLSCTSSDFNIKDTYIHWVKQRPEQGLDWLGRIDPANGNTKYDPKFQGKAAMTSDTSSNTAYLRLSSLTSEDTAVYYCASSGNYGAMDYWGQGTSVTVSS VL: ESVLTQSPALMSASLGEKVTMTCRASSSVNHMYWYQQKSDASPKLWIYYTSTLAPGVPARFSGSGSGNSYSLTISSMEGEDAATYYCQQFTISPSMYTFGGGTKLEIK	binds	–
24A1 (antibody, V domains shown) VH: QVQLKQSGAELVRPGTSVTLSCKASGYTFTDYEMHWMKQTPVYGLEWIGAIWPENADSVYNQKFKGKVTLTADKSSSTAYMDLRSLTSEDSAVYYCTREGGNYWGQGTTLTVSS VL: not shown	binds	–
2B1.1.2 (antibody, V domains shown) VH: EVQLVESGGGLVQPGGSLRLSCAASGFTFTSTGISWVRQAPGKGLEWVGRYWAWDGSTNYADSVKGRFTISADTSKNTAYLQMNSLRAEDTAVYYCARTYGIYDTYDNYTEYVMDYWGQGTLVTVSS VL: DIQMTQSPSSLSASVGDRVTITCRASQDVDTSLAWYKQKPGKAPKLLIYSASFLYSGVPSRFSGSGSGTDFTLTISSLQPEDFATYYCQQSTGHPQTFGQGTKVEIKR	–	90.8 pM
2B1.1.12 (antibody, V domains shown) VH: EVQLVESGGGLVQPGGSLRLSCAASGFPFTSTGISWVRQAPGKGLEWVGRYWAWDGSTNYADSVKGRFTISADTSKNTAYLQMNSLRAEDTAVYYCARTYGIYDTYDMYTEYVMDYWGQGTLVTVSS VL: DIQMTQSPSSLSASVGDRVTITCRASQDVDTSLAWYKQKPGKAPKLLIYSASFLYSGVPSRFSGSGSGTDFTLTISSLQPEDFATYYCQQSTGHPQTFGQGTKVEIKR	–	142 pM
2B1.1.8 (antibody, V domains shown) VH: EVQLVESGGGLVQPGGSLRLSCAASGFPFTSLGISWVRQAPGKGLEWVGRYWAWDGSTNYADSVKGRFTISADTSKNTAYLQMNSLRAEDTAVYYCARTYGIYDIYEKYTEYVMDYWGQGTLVTVSS VL: DIQMTQSPSSLSASVGDRVTITCRASQDVDTSLAWYKQKPGKAPKLLIYSASFLYSGVPSRFSGSGSGTDFTLTISSLQPEDFATYYCQQSTGHPQTFGQGTKVEIKR	–	112 pM
2B1.1.10 (antibody, V domains shown) VH: EVQLVESGGGLVQPGGSLRLSCAASGFPFTSQGISWVRQAPGKGLEWVGRYWAWDGSTNYADSVKGRFTISADTSKNTAYLQMNSLRAEDTAVYYCARTYGIYDTYDKYTEYVMDYWGQGTLVTVSS VL: DIQMTQSPSSLSASVGDRVTITCRASQDVDTSLAWYKQKPGKAPKLLIYSASFLYSGVPSRFSGSGSGTDFTLTISSLQPEDFATYYCQQSTGHPQTFGQGTKVEIKR	–	198 pM
2B1.1.4 (antibody, V domains shown) VH: EVQLVESGGGLVQPGGSLRLSCAASGFTFTSTGISWVRQAPGKGLEWVGRYWAWDGSTNYADSVKGRFTISADTSKNTAYLQMNSLRAEDTAVYYCARTYGIYDIYGGYTEYVMDYWGQGTLVTVSS VL: DIQMTQSPSSLSASVGDRVTITCRASQDVDTSLAWYKQKPGKAPKLLIYSASFLYSGVPSRFSGSGSGTDFTLTISSLQPEDFATYYCQQSTGHPQTFGQGTKVEIKR	–	153 pM
2B.1.1.6 (antibody, human IgG1, kappa, V domains shown, Full IgG1/kappa chains) VH: EVQLVESGGGLVQPGGSLRLSCAASGFTFTSTGISWVRQAPGKGLEWVGRYWAWDGSTNYADSVKGRFTISADTSKNTAYLQMNSLRAEDTAVYYCARTYGIYDTYDEYTEYVMDYWGQGTLVTVSS VL: DIQMTQSPSSLSASVGDRVTITCRASQDVDTSLAWYKQKPGKAPKLLIYSASFLYSGVPSRFSGSGSGTDFTLTISSLQPEDFATYYCQQSTGHPQTFGQGTKVEIKR	–	79.6 pM
